Assay results reported in paper PMC6994259 (Nature, 2020).

T1: Sgf73 (S. cerevisiae, UniProt P53165 1-657)
T1 sequence: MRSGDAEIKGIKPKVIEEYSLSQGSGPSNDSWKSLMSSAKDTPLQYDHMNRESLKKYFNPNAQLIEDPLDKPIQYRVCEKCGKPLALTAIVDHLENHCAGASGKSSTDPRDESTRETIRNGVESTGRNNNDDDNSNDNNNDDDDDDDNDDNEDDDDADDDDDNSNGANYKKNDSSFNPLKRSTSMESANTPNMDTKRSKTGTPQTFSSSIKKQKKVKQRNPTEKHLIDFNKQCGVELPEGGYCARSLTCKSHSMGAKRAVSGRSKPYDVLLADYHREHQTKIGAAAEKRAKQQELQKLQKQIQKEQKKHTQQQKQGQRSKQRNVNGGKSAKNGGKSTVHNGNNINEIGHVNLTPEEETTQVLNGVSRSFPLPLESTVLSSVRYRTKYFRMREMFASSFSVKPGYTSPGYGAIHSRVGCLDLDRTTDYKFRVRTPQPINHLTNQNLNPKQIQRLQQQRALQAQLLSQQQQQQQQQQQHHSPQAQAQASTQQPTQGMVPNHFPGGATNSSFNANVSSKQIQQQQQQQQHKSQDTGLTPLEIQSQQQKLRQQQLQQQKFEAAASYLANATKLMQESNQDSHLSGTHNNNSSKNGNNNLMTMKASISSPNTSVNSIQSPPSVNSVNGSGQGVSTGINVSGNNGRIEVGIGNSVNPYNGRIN

T2: Spt7 (S. cerevisiae, UniProt P35177 1-1332)
T2 sequence: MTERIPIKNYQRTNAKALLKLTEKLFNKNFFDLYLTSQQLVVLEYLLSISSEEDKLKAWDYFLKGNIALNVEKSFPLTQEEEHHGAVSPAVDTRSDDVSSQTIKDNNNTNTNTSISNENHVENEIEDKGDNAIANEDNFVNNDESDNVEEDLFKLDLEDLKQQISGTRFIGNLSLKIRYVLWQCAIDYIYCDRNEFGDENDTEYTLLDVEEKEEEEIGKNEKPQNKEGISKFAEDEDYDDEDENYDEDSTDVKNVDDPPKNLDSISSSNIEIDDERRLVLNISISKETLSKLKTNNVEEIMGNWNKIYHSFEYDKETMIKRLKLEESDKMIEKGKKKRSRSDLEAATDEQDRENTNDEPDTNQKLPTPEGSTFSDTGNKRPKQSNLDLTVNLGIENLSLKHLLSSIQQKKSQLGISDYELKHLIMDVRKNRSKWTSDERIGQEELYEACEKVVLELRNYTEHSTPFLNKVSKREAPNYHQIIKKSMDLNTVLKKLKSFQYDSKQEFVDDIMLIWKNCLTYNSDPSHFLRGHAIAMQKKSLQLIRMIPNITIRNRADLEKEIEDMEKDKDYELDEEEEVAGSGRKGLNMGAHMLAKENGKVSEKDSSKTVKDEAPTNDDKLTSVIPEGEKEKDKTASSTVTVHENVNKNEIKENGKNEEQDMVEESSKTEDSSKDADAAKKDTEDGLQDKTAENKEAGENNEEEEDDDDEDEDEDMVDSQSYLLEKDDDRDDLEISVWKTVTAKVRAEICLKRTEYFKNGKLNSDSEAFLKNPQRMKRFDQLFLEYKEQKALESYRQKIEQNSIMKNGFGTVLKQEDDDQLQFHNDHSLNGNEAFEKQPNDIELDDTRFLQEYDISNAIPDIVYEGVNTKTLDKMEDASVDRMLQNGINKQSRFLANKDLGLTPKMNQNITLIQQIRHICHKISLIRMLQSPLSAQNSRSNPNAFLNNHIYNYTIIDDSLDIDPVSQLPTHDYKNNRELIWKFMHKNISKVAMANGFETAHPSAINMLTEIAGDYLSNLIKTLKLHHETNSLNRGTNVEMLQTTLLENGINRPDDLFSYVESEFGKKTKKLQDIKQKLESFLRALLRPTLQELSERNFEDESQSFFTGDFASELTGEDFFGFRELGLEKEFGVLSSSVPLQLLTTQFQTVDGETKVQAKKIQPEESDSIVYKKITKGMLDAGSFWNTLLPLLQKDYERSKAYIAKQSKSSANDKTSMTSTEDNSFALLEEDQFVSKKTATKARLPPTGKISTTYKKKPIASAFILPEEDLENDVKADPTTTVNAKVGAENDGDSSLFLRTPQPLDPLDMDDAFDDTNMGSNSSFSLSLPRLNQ

B1: Taf6 (natural protein)
chain: MSTQQQSYTIWSPQDTVKDVAESLGLENINDDVLKALAMDVEYRILEIIEQAVKFKRHSKRDVLTTDDVSKALRVLNVEPLYGYYDGSEVNKAVSFSKVNTSGGQSVYYLDEEEVDFDRLINEPLPQVPRLPTFTTHWLAVEGVQPAIIQNPNLNDIRVSQPPFIRGAIVTALNDNSLQTPVTSTTASASVTDTGASQHLSNVKPGQNTEVKPLVKHVLSKELQIYFNKVISTLTAKSQADEAAQHMKQAALTSLRTDSGLHQLVPYFIQFIAEQITQNLSDLQLLTTILEMIYSLLSNTSIFLDPYIHSLMPSILTLLLAKKLGGSPKDDSPQEIHEFLERTNALRDFAASLLDYVLKKFPQAYKSLKPRVTRTLLKTFLDINRVFGTYYGCLKGVSVLEGESIRFFLGNLNNWARLVFNESGITLDNIEEHLNDDSNPTRTKFTKEETQILVDTVISALLVLKKDLPDLYEGKGEKVTDEDKEKLLERCGVTIGFHILKRDDAKELISAIFFGE
B2: Taf5 (natural protein)
chain: MSQKQSTNQNQNGTHQPQPVKNQRTNNAAGANSGQQPQQQSQGQSQQQGRSNGPFSASDLNRIVLEYLNKKGYHRTEAMLRAESGRTLTPQNKQSPANTKTGKFPEQSSIPPNPGKTAKPISNPTNLSSKRDAEGGIVSSGRLEGLNAPENYIRAYSMLKNWVDSSLEIYKPELSYIMYPIFIYLFLNLVAKNPVYARRFFDRFSPDFKDFHGSEINRLFSVNSIDHIKENEVASAFQSHKYRITMSKTTLNLLLYFLNENESIGGSLIISVINQHLDPNIVESVTAREKLADGIKVLSDSENGNGKQNLEMNSVPVKLGPFPKDEEFVKEIETELKIKDDQEKQLNQQTAGDNYSGANNRTLLQEYKAMNNEKFKDNTGDDDKDKIKDKIAKDEEKKESELKVDGEKKDSNLSSPARDILPLPPKTALDLKLEIQKVKESRDAIKLDNLQLALPSVCMYTFQNTNKDMSCLDFSDDCRIAAAGFQDSYIKIWSLDGSSLNNPNIALNNNDKDEDPTCKTLVGHSGTVYSTSFSPDNKYLLSGSEDKTVRLWSMDTHTALVSYKGHNHPVWDVSFSPLGHYFATASHDQTARLWSCDHIYPLRIFAGHLNDVDCVSFHPNGCYVFTGSSDKTCRMWDVSTGDSVRLFLGHTAPVISIAVCPDGRWLSTGSEDGIINVWDIGTGKRLKQMRGHGKNAIYSLSYSKEGNVLISGGADHTVRVWDLKKATTEPSAEPDEPFIGYLGDVTASINQDIKEYGRRRTVIPTSDLVASFYTKKTPVFKVKFSRSNLALAGGAFRP

Key:
Taf5 [1] = biological target: B2; experiment: affinity purification with mass spectrometry
Sgf73 [2] = biological target: T1, Sgf73; experiment: affinity purification with mass spectrometry
Tra1 = Tra1 (S. cerevisiae, UniProt P38811 1-3744); experiment: affinity purification with mass spectrometry
Taf5 [3] = biological target: B2; experiment: cryo-EM structure
Taf6 = biological target: B1; experiment: cryo-EM structure
Sgf73 [4] = biological target: T1, Sgf73; experiment: cryo-EM structure
Spt7 = biological target: T2, Spt7; experiment: cryo-EM structure

Sequence of Tra1 (P38811 whole entry): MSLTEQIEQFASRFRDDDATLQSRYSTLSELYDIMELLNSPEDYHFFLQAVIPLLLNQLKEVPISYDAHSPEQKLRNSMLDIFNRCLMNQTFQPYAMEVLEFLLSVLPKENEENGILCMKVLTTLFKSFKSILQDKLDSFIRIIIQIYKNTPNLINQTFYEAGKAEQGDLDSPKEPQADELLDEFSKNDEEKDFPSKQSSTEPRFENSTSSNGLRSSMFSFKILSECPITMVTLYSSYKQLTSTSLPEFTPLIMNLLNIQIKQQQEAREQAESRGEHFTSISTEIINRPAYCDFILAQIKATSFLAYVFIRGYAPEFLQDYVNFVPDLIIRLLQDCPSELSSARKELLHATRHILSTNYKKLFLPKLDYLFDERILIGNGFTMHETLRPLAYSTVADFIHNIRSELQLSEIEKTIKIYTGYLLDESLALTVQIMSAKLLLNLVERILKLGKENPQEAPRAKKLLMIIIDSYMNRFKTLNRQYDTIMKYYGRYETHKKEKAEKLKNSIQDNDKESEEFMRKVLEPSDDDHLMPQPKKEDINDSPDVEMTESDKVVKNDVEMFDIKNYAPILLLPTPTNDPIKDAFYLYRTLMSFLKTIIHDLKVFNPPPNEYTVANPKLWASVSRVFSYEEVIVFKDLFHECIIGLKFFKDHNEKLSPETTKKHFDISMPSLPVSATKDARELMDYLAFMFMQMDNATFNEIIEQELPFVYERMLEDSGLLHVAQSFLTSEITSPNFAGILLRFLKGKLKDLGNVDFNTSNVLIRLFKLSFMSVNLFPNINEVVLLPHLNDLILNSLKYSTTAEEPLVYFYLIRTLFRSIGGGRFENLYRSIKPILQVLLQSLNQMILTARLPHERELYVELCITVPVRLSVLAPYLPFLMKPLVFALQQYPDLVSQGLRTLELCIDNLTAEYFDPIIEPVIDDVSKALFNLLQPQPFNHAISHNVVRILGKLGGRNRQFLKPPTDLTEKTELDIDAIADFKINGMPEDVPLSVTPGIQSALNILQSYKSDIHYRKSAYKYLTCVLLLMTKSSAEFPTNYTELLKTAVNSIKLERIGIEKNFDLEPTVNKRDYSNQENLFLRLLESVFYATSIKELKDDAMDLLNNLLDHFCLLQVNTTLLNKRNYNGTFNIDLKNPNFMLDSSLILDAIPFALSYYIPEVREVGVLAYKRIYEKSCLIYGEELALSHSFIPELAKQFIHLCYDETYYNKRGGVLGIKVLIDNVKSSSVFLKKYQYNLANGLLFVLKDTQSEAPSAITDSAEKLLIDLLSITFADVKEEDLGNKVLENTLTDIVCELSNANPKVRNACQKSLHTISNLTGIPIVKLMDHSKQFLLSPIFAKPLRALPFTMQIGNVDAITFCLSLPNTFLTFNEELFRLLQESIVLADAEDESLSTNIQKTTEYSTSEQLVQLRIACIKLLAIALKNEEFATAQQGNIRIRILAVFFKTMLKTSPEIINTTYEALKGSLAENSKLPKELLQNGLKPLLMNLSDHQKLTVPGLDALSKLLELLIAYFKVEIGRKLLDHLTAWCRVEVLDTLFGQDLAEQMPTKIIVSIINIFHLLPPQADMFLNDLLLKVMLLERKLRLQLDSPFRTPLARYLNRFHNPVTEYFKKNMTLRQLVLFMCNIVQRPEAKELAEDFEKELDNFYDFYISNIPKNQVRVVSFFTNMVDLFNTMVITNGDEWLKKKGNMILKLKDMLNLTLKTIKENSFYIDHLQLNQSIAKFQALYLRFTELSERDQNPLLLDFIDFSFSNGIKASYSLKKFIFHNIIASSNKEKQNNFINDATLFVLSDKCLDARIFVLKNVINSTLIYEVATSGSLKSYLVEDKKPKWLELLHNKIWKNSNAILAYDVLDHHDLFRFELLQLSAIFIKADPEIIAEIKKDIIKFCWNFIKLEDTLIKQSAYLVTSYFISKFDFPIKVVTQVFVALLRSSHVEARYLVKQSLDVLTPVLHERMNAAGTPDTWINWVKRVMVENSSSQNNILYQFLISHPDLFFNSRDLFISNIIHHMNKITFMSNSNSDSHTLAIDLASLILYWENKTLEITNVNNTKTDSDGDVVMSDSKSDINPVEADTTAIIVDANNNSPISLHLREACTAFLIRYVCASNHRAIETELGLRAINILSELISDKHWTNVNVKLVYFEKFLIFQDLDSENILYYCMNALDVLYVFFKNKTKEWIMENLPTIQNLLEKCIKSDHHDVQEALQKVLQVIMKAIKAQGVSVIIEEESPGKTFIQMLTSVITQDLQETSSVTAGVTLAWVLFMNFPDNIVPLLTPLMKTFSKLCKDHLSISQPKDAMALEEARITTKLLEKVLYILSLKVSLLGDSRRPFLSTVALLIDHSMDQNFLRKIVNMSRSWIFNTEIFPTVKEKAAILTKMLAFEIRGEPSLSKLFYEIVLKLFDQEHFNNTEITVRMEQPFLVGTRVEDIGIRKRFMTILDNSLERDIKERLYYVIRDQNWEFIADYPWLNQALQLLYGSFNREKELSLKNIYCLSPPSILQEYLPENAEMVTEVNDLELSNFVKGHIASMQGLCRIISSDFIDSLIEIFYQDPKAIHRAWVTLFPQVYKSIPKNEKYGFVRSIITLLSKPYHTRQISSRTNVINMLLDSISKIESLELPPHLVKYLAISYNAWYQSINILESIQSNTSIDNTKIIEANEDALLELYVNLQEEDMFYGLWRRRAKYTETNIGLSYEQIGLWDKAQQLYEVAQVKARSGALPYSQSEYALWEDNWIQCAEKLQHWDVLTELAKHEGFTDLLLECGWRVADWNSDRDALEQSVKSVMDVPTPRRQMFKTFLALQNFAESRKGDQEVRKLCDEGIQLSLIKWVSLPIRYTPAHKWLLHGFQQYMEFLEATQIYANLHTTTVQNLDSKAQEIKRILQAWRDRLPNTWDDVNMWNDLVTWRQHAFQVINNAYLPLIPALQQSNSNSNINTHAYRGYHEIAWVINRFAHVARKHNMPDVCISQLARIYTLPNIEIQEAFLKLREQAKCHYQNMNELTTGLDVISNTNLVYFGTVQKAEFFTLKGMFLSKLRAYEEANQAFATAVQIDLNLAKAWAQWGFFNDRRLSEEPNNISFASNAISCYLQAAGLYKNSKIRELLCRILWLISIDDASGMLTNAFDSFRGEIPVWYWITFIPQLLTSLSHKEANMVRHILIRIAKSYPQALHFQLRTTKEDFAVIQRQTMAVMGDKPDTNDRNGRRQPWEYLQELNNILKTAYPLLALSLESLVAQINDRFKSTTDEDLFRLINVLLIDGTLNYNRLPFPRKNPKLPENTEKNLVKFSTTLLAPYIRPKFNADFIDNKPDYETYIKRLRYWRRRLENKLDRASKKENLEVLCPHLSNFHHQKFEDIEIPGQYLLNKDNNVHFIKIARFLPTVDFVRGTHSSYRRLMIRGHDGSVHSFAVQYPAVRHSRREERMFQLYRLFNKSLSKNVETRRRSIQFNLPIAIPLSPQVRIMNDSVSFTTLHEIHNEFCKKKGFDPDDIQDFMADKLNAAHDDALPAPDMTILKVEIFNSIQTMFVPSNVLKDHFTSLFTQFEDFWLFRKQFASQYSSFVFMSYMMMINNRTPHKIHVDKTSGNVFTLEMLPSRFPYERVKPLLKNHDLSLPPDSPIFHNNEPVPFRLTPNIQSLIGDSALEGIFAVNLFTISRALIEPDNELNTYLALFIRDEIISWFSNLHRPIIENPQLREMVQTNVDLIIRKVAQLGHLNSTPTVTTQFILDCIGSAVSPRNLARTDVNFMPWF

| binding result (Taf5 [3]) | binding result (Sgf73 [4]) | binding result (Spt7) | Binder | also measured |
| --- | --- | --- | --- | --- |
| – | – | – | Spt20 (natural protein) MSANSPTGNDPHVFGIPVNATPSNMGSPGSPVNVPPPMNPAVANVNHPVMRTNSNSNANEGTRTLTREQIQQLQQRQRLLLQQRLLEQQRKQQALQNYEAQFYQMLMTLNKRPKRLYNFVEDADSILKKYEQYLHSFEFHIYENNYKICAPANSRLQQQQKQPELTSDGLILTKNNETLKEFLEYVARGRIPDAIMEVLRDCNIQFYEGNLILQVYDHTNTVDVTPKENKPNLNSSSSPSNNNSTQDNSKIQQPSEPNSGVANTGANTANKKASFKRPRVYRTLLKPNDLTTYYDMMSYADNARFSDSIYQQFESEILTLTKRNLSLSVPLNPYEHRDMLEETAFSEPHWDSEKKSFIHEHRAESTREGTKGVVGHIEERDEFPQHSSNYEQLMLIMNERTTTITNSTFAVSLTKNAMEIASSSSNGVRGASSSTSNSASNTRNNSLANGNQVALAAAAAAAAVGSTMGNDNNQFSRLKFIEQWRINKEKRKQQALSANINPTPFNARISMTAPLTPQQQLLQRQQQALEQQQNGGAMKNANKRSGNNATSNNNNNNNNLDKPKVKRPRKNAKKSESGTPAPKKKRMTKKKQSASSTPSSTTMS | binding result (Taf5 [1]): binds; binding result (Sgf73 [2]): binds; binding result (Tra1): binds |
| binds | binds | – | Taf9 (natural protein) MNGGGKNVLNKNSVGSVSEVGPDSTQEETPRDVRLLHLLLASQSIHQYEDQVPLQLMDFAHRYTQGVLKDALVYNDYAGSGNSAGSGLGVEDIRLAIAARTQYQFKPTAPKELMLQLAAERNKKALPQVMGTWGVRLPPEKYCLTAKEWDLEDPKSM | binding result (Taf6): binds |
| binds | binds | binds | B1 | – |
| binds | – | binds | Taf10 (natural protein) MDFEEDYDAEFDDNQEGQLETPFPSVAGADDGDNDNDDSVAENMKKKQKREAVVDDGSENAFGIPEFTRKDKTLEEILEMMDSTPPIIPDAVIDYYLTKNGFNVADVRVKRLLALATQKFVSDIAKDAYEYSRIRSSVAVSNANNSQARARQLLQGQQQPGVQQISQQQHQQNEKTTASKVVLTVNDLSSAVAEYGLNIGRPDFYR | – |
| – | – | binds | B2 | – |
